# According to paper PMC5362243, “A rare IL33 loss-of-function mutation reduces blood eosinophil counts and protects from asthma” (PLoS Genetics, 2017):
# T1: Human ST2-Flag-His (recombinant IL-33R, extracellular domain) (human, UniProt Q01638-1 19-328)
# T1 construct: human ST2 (IL1RL1, IL-33 receptor), recombinant protein encompassing the extracellular domain; Captured on the chip through its His tag by an immobilised penta-His antibody; also called IL-33R/ST2; IL1RL1; source: prepared by Amgen
# T1 sequence (looked up): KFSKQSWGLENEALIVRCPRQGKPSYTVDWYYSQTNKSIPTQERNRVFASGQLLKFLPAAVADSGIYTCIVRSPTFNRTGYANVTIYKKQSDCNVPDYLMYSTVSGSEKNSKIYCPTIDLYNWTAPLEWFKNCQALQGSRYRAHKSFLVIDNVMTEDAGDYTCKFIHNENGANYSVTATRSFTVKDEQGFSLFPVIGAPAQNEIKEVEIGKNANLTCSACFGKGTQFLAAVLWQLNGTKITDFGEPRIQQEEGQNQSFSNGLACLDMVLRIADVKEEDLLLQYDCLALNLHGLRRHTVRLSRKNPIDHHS
# B1: IL-33 (95-270), wild type cytokine domain (domain or fragment, human, UniProt O95760-1 95-270, looked up)
# chain: AFGISGVQKYTRALHDSSITGISPITEYLASLSTYNDQSITFALEDESYEIYVEDLKKDEKKDKVLLSYYESQHPSNESGDGVDGKMLMVTLSPTKDFWLHANNKEHSVELHKCEKPLPDQAFFVLHNMHSNCVSFECKTDPGVFIGVKDNHLALIKVDSSENLCTENILFKLSET
# notes: human interleukin-33, residues 95-270 of the 270-residue protein, released by thrombin cleavage from a poly-His fusion (pET24a); Start at residue 95 chosen after the natural processing of IL-33; also called wild type IL-33 (95–270); IL-33 (95–270) (Amgen); source: E. coli, purified (nickel HisTrap, SEC, thrombin cleavage, SEC); not shown: poly-His, N-terminal, cleaved
# Molecular target: T1, Human ST2-Flag-His (recombinant IL-33R, …)
# Experiment: SPR; Biacore T200, CM5 chip; human ST2-Flag-His captured by amine-coupled penta-His antibody; IL-33 variants injected at 200 nM (180 s association, 300 s dissociation); 25°C, HBS-P (10 mM HEPES pH 7.4, 150 mM NaCl, 0.05% P20); single replicate
# Settings: both partners purified
binder,measurement,value
B1,binding result,binds
